Data: US20250355001A1, “METHOD FOR DETECTING A TAU PROTEIN FRAGMENT IN A SAMPLE” (GTINVENT LIMITED, priority 2022, published 2025)

B1: 3aH6: N-terminal anti-tau clone, Table 6; SEQ ID NO: 423 (protein)
chain: QVQLQESGPSLVKPSQTLSLTCTVSGFSLSSNGVGWVRQAPGKVPEWLGDISSVGKKYANPALKSRLSFTRDTSKSQVSLSLSSVTTEDTAVYYCVKCRDGGVTYGYDIDYWGPGLLVTASSEGKSSGASGESKVDDQAVVTQPSSVSGSLGQSVSITCSGSSGNVGYGDYVSWFQQFHGSAPKLLIYGATNLASGVPARFSGSRSGNTATLTISSLHAEDEADYYCASYDSSSGGVFGSGTRLTVLG
modifications: 3aH6 amino acid sequence
B2: 3bG4: N-terminal anti-tau clone, Table 6; SEQ ID NO: 425 (protein)
chain: QVQLQESGPSLVKPSQTLSLTCTISGFSLISNGVGWVRQAPGKVPEWVGDIASSGKAYSNPALKSRLSITRDTSKSQVSLSLRSVTTEDTAVYYCVRCRDGGVTYGYDIDYWGPGLLVTVSSEGKSSGASGESKVDDQAVLTQPSSVSKSLGQSVSITCSGSTSNVGSGNDVSWFQQVPGSAPKLLFYGATNRASGVPDRFSGSRSGNTATLTITSLQAEDEADYYCGSYDSNSGGIFGSGTRLTVLG
modifications: 3bG4 amino acid sequence
B3: NS2A1: anti-tau clone, Table 11; SEQ ID NO: 220 (protein)
scFv: QVQLQESGPSLVKPSQTLSLTCTVSGFSLSTNSVGWVRQAPGKAPEWVAGIDTDGEEGFNPVLKSRLSITRDTSKSQVSLSLSNVTSEDTAVYYCGRSYRTDGLAYGYVQAIDYWGPGLLVTISSEGKSSGASGESKVDDQSVLTQPSSVSGSPGQTVSITCSGSYIGSSGVGWFQQLPGSGLRTIIVASDGRPSGVPDGFSMSKSGNTATLTISSLQAEDEADYFCGSSDRTQYTGLFGSGTRLTVLG
modifications: NS2A1 amino acid sequence
B4: S1E12: anti-tau clone, Table 11; SEQ ID NO: 218 (protein)
scFv: QVQLQESGPSLVKPSQTLSLTCTVSGFSLGSNSVGWVRQAPGKAPEWVAGIDTDGEEGYNPALNSRLSITRDTSKSQVSLSLSSVTSEDTAVYYCGRSYRADGLAYGYVQAIDYWGPGLLVTVSSEGKSSGASGESKVDDRVVRTQPSSVSGSLGQRVSITCSGSFIGISSVGWFQQLPGSGLRTIIVASDGRPSGVPDRFSMSKSGNTATLTISSLQAEDEADYFCGSSDRTQYTGVFGSGTRLTVLG
modifications: S1E12 amino acid sequence

Experiments:
[1] = biological target: T1, htau40 (Homo sapiens, UniProt P10636); assay: Biacore X100 SPR kinetics of anti-tau mAbs on immobilised htau40; assay type: binding
T1 construct: Full length tau (hT40)
Procedure: For anti-tau mAb SPR measurements, htau40 was conjugated to the surface of a CM5 sensor chip using amine coupling as explained previously. Briefly, 2 μg/mL htau40 in 10 mM Sodium acetate buffer (pH 4.0) was passed over the activated chip surface (EDC/NHS) in flow cell 2 for a period for 45 s followed by blocking with 1 M ethanolamine-HCl PH 8.5. Flow cell 1 was set up as reference control and blocked simultaneously. Final immobilisation level of htau40 (Rmax) was approximately 250 RU. Following a minimum of three start-up cycles, increasing concentrations (0.78 nM-25 nM) of the mAb in HBS-EP+ buffer was added at a rate of […] to the chip. The mAb was added for a 120 s association period and 600 s dissociation period followed by a regeneration cycle of 30 s injection of glycine buffer pH 1.5 in between each cycle. Binding responses were analysed in Biacore X100 evaluation software and data fitted to a 1:1 binding model to obtain kinetic and affinity characterisation.
For anti-tau mAb SPR measurements (Biacore X100™) and epitope mapping, the same methodologies described above (see Example 16) were followed. Kinetic rates and equilibrium binding constants of additional anti-tau mAbs and the regions recognised on hT40 are given in the Table 25 below

[2] = test system: hT40, dGA, dGAE and truncated tau fragments; assay: Binding ELISA / epitope mapping of anti-tau scAbs with truncated tau proteins and 13mer peptides; parameters: species or system human; settings: for Short epitope on hT40: Table 18, '3a' & '3b' series scAbs; for hT40 binding region: second Table 25, mAb format; for Tau proteins/fragments with positive scAb reactivity: binding ELISA
Method in brief: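 Serially double-diluted scAbs were applied to 2% MPBS-blocked wells carrying either 1 μg/ml full-length or truncated tau, or biotinylated 13mer peptides (1 μg/ml) captured on 5 μg/ml streptavidin. Absorbance after HRP anti-human C kappa secondary gave the binding signal.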

[3] = biological target: T2, hT40 (T441, SEQ ID NO: 1) (Homo sapiens, UniProt P10636); assay: Biacore X100 SPR kinetics of scAbs for hT40; assay type: binding
T2 construct: Full length tau (hT40)
Procedure: Surface plasmon resonance (SPR) is widely regarded as the gold standard for real time measurement of protein-protein interactions such as antibody binding. All SPR experiments were carried out using a Biacore X100 machine and HBS EP+ running buffer (GE Healthcare). A ‘capture’ method was followed for affinity measurements, where an anti-human constant kappa chain (HuCk) antibody was conjugated to the surface of a CM5 sensor chip using an amine coupling kit and scAb molecules were immobilised via their HuCk domain. Amine coupling is a very common approach for immobilising the ligand to the chip surface. […] The capture antibody was diluted 1/100 in 10 mM Sodium acetate buffer pH 5.0 and passed over the activated chip surface for a period of at least 420 s. Final ligand immobilisation levels over 12,000 RU were deemed to be satisfactory.
(§1) Following immobilisation, the level of each scAb to be captured was identified using the standard SPR equation with a theoretical RMax of 100 RU. Analyte MW refers to the molecular weight of hT40 or dGA/dGAE molecules, while ligand MW refers to the molecular weight of the scAbs tested. RL is the desired capture level and S refers to the stoichiometric ratio:
The scAb to be tested was added only to flow cell 2 so that flow cell 1 could act as a control to subtract any interaction with the analyte and the chip surface. Both single and multi-cycle runs were utilised using wizards developed in the Biacore X100 control software which are both accepted methods of kinetic analysis (Karlsson, R., et al. Analyzing a kinetic titration series using affinity biosensors (2006) Analytical Biochemistry 349:136-47). The multi-cycle protocol was as follows-Three start-up cycles composed of an initial capture, to the desired level, of the scAb to be tested was performed followed by a 30 s injection of glycine buffer pH 2.0 after each cycle to regenerate the chip surface. […] Following three start-up cycles increasing concentrations (0.15625 nM-100 nM) of the target to be tested were added to the chip surface after the desired scAb capture. The target was added for a 120 s association period and 420 s dissociation period followed by another regeneration, 30 s injection of glycine buffer pH 2.0 in between each cycle.
(§2) The single cycle kinetics protocol was similar and utilised the same level of scAb capture. Three start-up cycles were used followed by 5 increasing concentrations of the analyte (6.25 nM-100 nM) for an association period of 120 s followed by a dissociation period of 420 s for each concentration. In single cycle kinetics the regeneration step was performed only after the final analyte concentration was added. Binding responses were analysed in Biacore X100 evaluation software and data fitted to a 1:1 binding model to obtain kinetic and affinity characterisation.

[4] = biological target: dGA (SEQ ID NO: 5) (Homo sapiens, UniProt P10636); assay: Biacore X100 SPR kinetics of scAbs for dGA; assay type: binding; settings: Table 24, scAb, dGA analyte; for Kd: dissociation rate
Procedure: Surface plasmon resonance (SPR) is widely regarded as the gold standard for real time measurement of protein-protein interactions such as antibody binding. All SPR experiments were carried out using a Biacore X100 machine and HBS EP+ running buffer (GE Healthcare). A ‘capture’ method was followed for affinity measurements, where an anti-human constant kappa chain (HuCk) antibody was conjugated to the surface of a CM5 sensor chip using an amine coupling kit and scAb molecules were immobilised via their HuCk domain. Amine coupling is a very common approach for immobilising the ligand to the chip surface. The chip surface has a dextran matrix derivatised with carboxyl groups, which after activation with N-hydroxysuccinimide (NHS) and 1-ethyl-3-(3-dimethylaminopropyl) carbodiimide (EDC), form reactive succinimide esters which allows the covalent capturing of the ligand via any available primary amine groups (e.g. Lysine) on the ligand (in this case anti-HuCk antibody). The capture antibody was diluted 1/100 in 10 mM Sodium acetate buffer pH 5.0 and passed over the activated chip surface for a period of at least 420 s. Final ligand immobilisation levels over 12,000 RU were deemed to be satisfactory.
as §1
The scAb to be tested was added only to flow cell 2 so that flow cell 1 could act as a control to subtract any interaction with the analyte and the chip surface. Both single and multi-cycle runs were utilised using wizards developed in the Biacore X100 control software which are both accepted methods of kinetic analysis (Karlsson, R., et al. Analyzing a kinetic titration series using affinity biosensors (2006) Analytical Biochemistry 349:136-47). The multi-cycle protocol was as follows-Three start-up cycles composed of an initial capture, to the desired level, of the scAb to be tested was performed followed by a 30 s injection of glycine buffer pH 2.0 after each cycle to regenerate the chip surface. The regeneration step removed any captured scAb whilst leaving the capture antibody intact and able to repeat the capture for the next cycle. Following three start-up cycles increasing concentrations (0.15625 nM-100 nM) of the target to be tested were added to the chip surface after the desired scAb capture. The target was added for a 120 s association period and 420 s dissociation period followed by another regeneration, 30 s injection of glycine buffer pH 2.0 in between each cycle.
as §2

[5] = second Table 25, newly converted mAbs, hT40
[6] = residue numbers of SEQ ID NO: 1 (hT40), CDR Tables 1-11
[7] = Table 25, '3a' and '3b' scAbs, hT40
[8] = Table 27, mAb format, immobilised htau40
[9] = Table 26 summary, top scAbs, residues of hT40
[10] = Table 23, scAb captured, T441 (hT40) analyte, 1:1 model

T1 sequence (P10636 1-441 isoform P10636-8): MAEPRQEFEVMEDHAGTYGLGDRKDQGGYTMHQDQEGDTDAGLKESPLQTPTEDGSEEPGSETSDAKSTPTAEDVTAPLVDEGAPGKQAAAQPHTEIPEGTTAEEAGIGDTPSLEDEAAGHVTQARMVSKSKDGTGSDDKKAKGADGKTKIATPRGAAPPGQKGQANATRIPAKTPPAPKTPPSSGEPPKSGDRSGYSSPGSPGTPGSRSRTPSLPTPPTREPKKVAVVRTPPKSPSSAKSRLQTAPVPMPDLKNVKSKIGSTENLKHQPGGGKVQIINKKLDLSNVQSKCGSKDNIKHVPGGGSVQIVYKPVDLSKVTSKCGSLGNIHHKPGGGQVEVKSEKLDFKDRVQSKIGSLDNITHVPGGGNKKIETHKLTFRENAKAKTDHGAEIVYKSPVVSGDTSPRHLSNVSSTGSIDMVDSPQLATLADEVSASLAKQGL
T2 sequence (P10636 1-441 isoform P10636-8): as above
Chain of dGA (SEQ ID NO: 5) (P10636 614-707): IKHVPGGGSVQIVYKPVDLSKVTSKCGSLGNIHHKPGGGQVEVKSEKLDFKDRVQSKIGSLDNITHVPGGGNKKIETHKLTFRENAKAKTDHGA

Molecule | ka [1, 5] [M⁻¹ s⁻¹] | kd [1, 5] [s⁻¹] | Short epitope on hT40 [2] | Epitope [2, 6] | hT40 binding region [2] | ka [3, 7] [M⁻¹ s⁻¹] | kd [3, 7] [s⁻¹] | Binding region hT40 ([2]; second Table 26, own antibodies) | ka [1, 8] [M⁻¹ s⁻¹] | kd [1, 8] [s⁻¹] | Tau proteins/fragments with positive scAb reactivity ([2]; Table 16, NS, S and M clones) | Epitope [2, 9] | ka [4] [M⁻¹ s⁻¹] | Kd [4] [s⁻¹] | ka [3, 10] [M⁻¹ s⁻¹] | kd [3, 10] [s⁻¹] | Shortest region bound on hT40 ([2]; Table 16, NS, S and M clones, incl. 13mer peptides)
B1 | 3.128e+06 | 0.0001522 | 1-49 | 1-49 | 1-15 | 2.757e+06 | 0.009868 |  |  |  |  |  |  |  |  |  | 
B2 | 4.54e+06 | 0.0002964 | 1-49 | 1-49 | 1-15 | 6.669e+06 | 0.05966 | (Binding region hT40 1-15) |  |  |  |  |  |  |  |  | 
B3 |  |  |  | 297-390 |  |  |  |  | 893700 | 0.002621 | hT40, 297-390 (dGA), 297-391 (dGAE) | 297-390 | 188000 | 0.00102 | 252100 | 0.0007393 | 
B4 |  |  |  | 297-390 |  |  |  |  |  |  | hT40, 297-390 (dGA), 297-391 (dGAE) | 297-390 | 2.99e+06 | 0.001627 | 385000 | 0.000319 | 297-390
